US11214614B2, “LTBP complex-specific inhibitors of TGFβ and uses thereof” (Scholar Rock, Inc., priority 2019, dated 2022)

B1: SR-AB42: cycle 3 antibody, lineage SR-AB23; CDRs SEQ ID NO: 166-171; HCVR SEQ ID NO: 318, LCVR SEQ ID NO: 319 (antibody, V domains shown)
VH: QVQLVESGGGVVQPGRSLRLSCAASGFTFRSYVMHWVRQAPGKGLEWVAVISHEGSLKYYADSVKGRFTISRDNSKNTLYLQMNSLRAEDTAVYYCARPRIAARRGGFGYWGQGTLVTVSS
VL: NFMLTQPHSVSESPGKTVTISCTRSSGNIDNNYVQWYQQRPGSSPTTVIYEDNQRPSGVPDRFSGSIDSSSNSASLTISGLKTEDEADYYCQSYDYDTQGVVFGGGTKLTVL
B2: SR-AB63: cycle 3 antibody, lineage SR-AB26; CDRs SEQ ID NO: 292-297; HCVR SEQ ID NO: 360, LCVR SEQ ID NO: 361 (antibody, V domains shown)
VH: QLQLQESGPGLVKPSETLSLTCTVSGGSIRSSSYYWGWIRQPPGKGLEWIGSISYSATTYYNPSLKSRVTISVDTSKNQFSLKLSSVTAADTAVYYCAGDPSYDSIAGMQVWGQGTTVTVSS
VL: DIQLTQSPSSLSASVGDRVTITCRASQSISSYLNWYQQKPGKAPKLLIYAASNLQSGVPSRFSGSGSGTDFTLTISSLQPEDFATYYCQQSFDWPLTFGGGTKVEIK

Experiments:
[1] = system: phosphorylation of Smad2/3 in kidney of Col4a3−/− mice; experiment: Alport (Col4a3−/−) mouse model, pSMAD2/3 ELISA on whole kidney lysates; type: in vivo; details: single dose 30 mg/kg i.p., 48 hours prior to sacrifice, 11 week old Col4a3−/− mice
Description: The murine Col4a3 −/− model is an established genetic model of autosomal recessive Alport syndrome. Alport mice lack a functional collagen 4A3 gene (Col4A3−/−) and therefore cannot form normal type IV collagen trimers, which require a3, a4, and a5 chains. Col4a3−/− mice develop fibrosis in the kidney consistent with renal fibrosis in human patients, including interstitial fibrosis and tubular atrophy, and Col4a3−/− mice develop end-stage renal disease (ESRD) between 8 and 30 weeks of age, depending on the genetic background of the mouse. The structural and functional manifestation of renal pathology in Col4a3−/− mice, combined with the progression to ESRD make Col4a3−/− mice an ideal model to understand kidney fibrosis. […]
It is well documented that TGFβ receptor activation leads to a downstream signaling cascade of intracellular events, including phosphorylation of Smad2/3. Therefore, the ability of SR-AB42 and SR-AB63 treatment to inhibit TGFβ signaling was assessed in kidney lysate samples by measuring relative phosphorylation levels of Smad2/3 as assayed by ELISA (Cell Signaling Technologies) according to the manufacturer's instructions. […] FIG. 20B is a graph showing the amount of phosphorylated SMAD2/3 (pSMAD2/3) as determined by ELISA and FIG. 20C is a graph showing the amount of total […] (tSMAD2/3) protein as determined by ELISA.

huLTBP1 proTGFβ1 = huLTBP1 proTGFβ1 (Homo sapiens, UniProt P01137+Q14766); experiment: SPR (Biacore 8K) monovalent binding kinetics of Fabs, biotinylated antigen captured; set-up: biotin (complex biotinylated); details: for KD of Fab fragments / Binding of human Fabs for huLTBP1 proTGFβ1 and huLTBP3 proTGFβ1 (FIGS. 23, 24): SPR; for KD of Fab fragments: antigen not given; for Monovalent affinities (FIGS. 23, 24): figure legends
Outline: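 Biotinylated proTGFβ1 complexes (10 nM) captured on Biotin CAPture chip; Fabs injected at 10, 5, 2.5, 1.25, 0.625 nM (0 nM reference), 120 s contact, 900 s dissociation, multi-cycle with regeneration. HBS-EP+ pH 7.4; global 1:1 fit for ka, kd, KD.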

huLTBP1 proTGFβ1, sequence (P01137 30-390): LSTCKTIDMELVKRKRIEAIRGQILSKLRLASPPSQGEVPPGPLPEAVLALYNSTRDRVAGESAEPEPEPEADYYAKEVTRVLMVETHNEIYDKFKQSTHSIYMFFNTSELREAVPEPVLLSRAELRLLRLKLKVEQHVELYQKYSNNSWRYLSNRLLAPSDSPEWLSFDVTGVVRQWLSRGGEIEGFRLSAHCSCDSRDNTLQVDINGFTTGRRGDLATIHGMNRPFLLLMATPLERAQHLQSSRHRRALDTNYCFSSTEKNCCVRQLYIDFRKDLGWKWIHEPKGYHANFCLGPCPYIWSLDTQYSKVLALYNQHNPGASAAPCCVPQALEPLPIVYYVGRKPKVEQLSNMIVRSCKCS
huLTBP1 proTGFβ1, sequence (Q14766 347-1721 limits assumed): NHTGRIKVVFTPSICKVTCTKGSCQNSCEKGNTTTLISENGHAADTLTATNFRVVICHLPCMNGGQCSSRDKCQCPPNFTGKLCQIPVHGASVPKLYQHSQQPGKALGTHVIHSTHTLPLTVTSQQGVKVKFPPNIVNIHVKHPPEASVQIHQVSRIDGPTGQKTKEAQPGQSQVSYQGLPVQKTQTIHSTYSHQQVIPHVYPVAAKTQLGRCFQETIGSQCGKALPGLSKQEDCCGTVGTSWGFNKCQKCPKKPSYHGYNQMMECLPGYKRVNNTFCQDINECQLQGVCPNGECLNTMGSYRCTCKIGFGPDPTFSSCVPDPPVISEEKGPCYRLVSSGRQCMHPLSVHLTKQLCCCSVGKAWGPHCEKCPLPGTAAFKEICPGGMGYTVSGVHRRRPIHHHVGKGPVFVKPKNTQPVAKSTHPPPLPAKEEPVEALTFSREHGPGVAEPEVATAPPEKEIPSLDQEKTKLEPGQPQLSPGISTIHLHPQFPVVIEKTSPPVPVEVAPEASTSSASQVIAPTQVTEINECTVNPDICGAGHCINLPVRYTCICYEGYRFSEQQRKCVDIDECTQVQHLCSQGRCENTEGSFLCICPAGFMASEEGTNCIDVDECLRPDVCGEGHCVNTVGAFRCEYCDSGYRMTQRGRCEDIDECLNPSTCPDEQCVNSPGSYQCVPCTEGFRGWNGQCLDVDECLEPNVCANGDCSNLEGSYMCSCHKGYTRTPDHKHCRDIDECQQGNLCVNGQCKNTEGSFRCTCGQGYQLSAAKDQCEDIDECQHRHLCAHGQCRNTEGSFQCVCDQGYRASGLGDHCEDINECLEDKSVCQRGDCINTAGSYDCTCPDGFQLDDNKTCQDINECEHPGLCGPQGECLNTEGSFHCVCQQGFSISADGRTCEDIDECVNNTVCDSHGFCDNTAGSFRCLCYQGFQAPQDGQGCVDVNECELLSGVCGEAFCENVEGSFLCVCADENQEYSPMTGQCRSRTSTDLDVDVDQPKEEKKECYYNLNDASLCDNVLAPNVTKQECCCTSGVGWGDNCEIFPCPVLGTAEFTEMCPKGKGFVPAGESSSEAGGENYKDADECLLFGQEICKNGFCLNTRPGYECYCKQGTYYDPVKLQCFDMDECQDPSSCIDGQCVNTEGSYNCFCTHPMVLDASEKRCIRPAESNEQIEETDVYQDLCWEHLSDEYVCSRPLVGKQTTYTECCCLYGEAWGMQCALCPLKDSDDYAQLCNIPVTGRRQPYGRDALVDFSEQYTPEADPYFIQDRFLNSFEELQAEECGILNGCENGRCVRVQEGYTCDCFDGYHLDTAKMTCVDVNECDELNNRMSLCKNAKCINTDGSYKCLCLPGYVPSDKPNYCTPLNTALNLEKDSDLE

Row | Molecule | pSmad2/3 signaling (pSMAD2/3:tSMAD2/3) in whole kidney lysates [1] | KD of Fab fragments (huLTBP1 proTGFβ1) | Binding of human Fabs for huLTBP1 proTGFβ1 and huLTBP3 proTGFβ1 (FIGS. 23, 24) (huLTBP1 proTGFβ1) | Monovalent affinities (FIGS. 23, 24) (huLTBP1 proTGFβ1)
1 | B1 | significantly inhibit pSmad2/3 signaling | sub-nanomolar | context-selective binding | picomolar monovalent affinities
2 | B2 | significantly inhibit pSmad2/3 signaling | sub-nanomolar | context-selective binding | picomolar monovalent affinities
